Measured values taken from the DeepSol protein solubility set.

Experiment: soluble on expression in E. coli; label from the status in PepcDB or PDB records

Row | Sequence | soluble on expression in E. coli
1 | MGHHHHHHSHKPVPWVEKYRPKCVDEVAFQEEVVAVLKKSLEGADLPNLLFYGPPGTGKTSTILAAARELFGPELFRLRVLELNASDERGIQVVREKVKNFAQLTVSGSRSDGKPCPPFKIVILDEADSMTSAAQAALRRTMEKESKTTRFCLICNYVSRIIEPLTSRCSKFRFKPLSDKIQQQRLLDIAKKENVKISDEGIAYLVKVSEGDLRKAITFLQSATRLTGGKEITEKVITDIAGVIPAEKIDGVFAACQSGSFDKLEAVVKDLIDEGHAATQLVNQLHDVVVENNLSDKQKSIITEKLAEVDKCLADGADEHLQLISLCATVMQQLSQNC | not soluble
2 | MAHHHHHHMVELTEEEAMNFLNIALGEAEKSLQKELKEMPIFCLLINEEKKIISSSYNYTNESKNGSRHSELIAIDKYIYDGNYEQMKNLNLIKCYNNNENSIEKSIQDYFVSLDEKKNSELKINNYENINDKYMNEKYNKIQERINNLKKCCIVVTCEPCIMCVYALKLIGIKNIYFCCLNERFGGCGSVLSLHKKYEDINVHYIEHPECSEKSINLMKAFYKAGNPSAPEEKRKRPIS | not soluble
3 | MGHHHHHHMLENIRDAVRKFLTGSTPYEKAVDEFIKDLQKSLISSDVNVKLVFSLTAKIKERLNKEKPPSVLERKEWFISIVYDELSKLFGGDKEPNVNPTKLPFIIMLVGVQGSGKTTTAGKLAYFYKKRGYKVGLVAADVYRPAAYDQLLQLGNQIGVQVYGEPNNQNPIEIAKKGVDIFVKNKMDIIIVDTAGRHGYGEETKLLEEMKEMYDVLKPDDVILVIDASIGQKAYDLASRFHQASPIGSVIITKMDGTAKGGGALSAVVATGATIKFIGTGEKIDELETFNAKRFVSRILGMGDIESILEKVKGLEEYDKIQKKMEDVMEGKGKLTLRDVYAQIIALRKMGPLSKVLQHIPGLGIMLPTPSEDQLKIGEEKIRRWLAALNSMTYKELENPNIIDKSRMRRIAEGSGLEVEEVRELLEWYNNMNRLLKMVK | soluble
4 | MDIKVIREKLTLTTSITSESVAEYEHDVDECCRLLEHKLELEMEKKLQLSNRIDVVQSQVTELWDRVDKARRRESDISCRVTAWAQHLSEMMNEVKLKKAKMGTTMEISATLSAEIQESLDLLAEKRVIVQRMREEIDYRRHLHKQQLKDLKLDCDREEEKCEYWNDKSAEIEKVVEMLKEQRKSLGERVEEEKRMEQEQKKMLEELEMLLKKTGKKRQILDENANLVASFSSLTEESS | not soluble
5 | MELDDALDELSDSLGQRQPDPDENKPLDDKVKEKIKAEHSEKLGERDDTIPPEYRHLLDNDGKDKPEKPLTKNTEKPGQDQDPIDALSEDLDSCP | soluble
6 | MTDKSKTEKLISSDDKQSVIDGILDMVFNSKAYEVPWISEKLMELSKNKDLDIAGLSLTCFGHLARLHSNIGDYDKVIPLLHSKQDDPELQGRAEDALEDISLFLSENH | not soluble
7 | MAAKWEKLEGNVGVLTIEVDAKEVNNSIDAAFKKVVKTINVPGFRKGKMPRPLFEQRFGIESLYQDALDIILPKAYGEAIDEAGIFPVAHPEIDIEKFEKNANLIFTAKVTVKPEVKLGEYKGLAVEKVETTVTDEDVENELKSLQERQAELVVKEEGTVENGDTAVIDFEGFVDGEAFEGGKGENYSLAIGSGTFIPGFEEQVIGLKSGESKDVEVSFPEEYHAAELAGKPATFKVTVHEIKTKELPELNDEFAKEADEAVATLDELKAKLRTNLEEGKKHEAEHKVRDEVVELAAANAEIDIPEAMIDTELDRMVREFEQRLSQQGMNLELYYQFTGTDADKLKEQMKEDAQKRVRINLVLEAIIEAENIEVTEEEVTAEVEKMAEMYGMPVDAIKQALGSVDALAEDLKVRKAVDFLVENAA | not soluble
8 | MSLDGGYRTLAAAELFKRYGHLISPVSGPIAYLHPMPGRNAGMRHMYVAGYLVCPPSAPRENRFDKLCSGKGASDAQARASALAEALERFSGVYQGDEAALRGSLAQLSAHAPPGSGPIDVNALQQYSDRQFERRERHNATTDDPRKQVPRRFTRDSVIDWTPAWSIATGARRLVPLAYCYAETPASSGADYCVHNPNGCAAGACIEEAILQGLLELVERDAVAIWWYNMLRRPAVDIESFGDPYFDALAADYASLGWRLWALDITHDLRIPVFVALARETATGRFSIGFGCHPDSRIALQRALTEVNQLLDVGASAPPPWDVDKLPDDAFLHPDPALPPVRAPARAPHGRCDLKRDIEDCVARLAAAGIDTLVVDKTRPDIGLPVVQVIAPGLCHFWPRFGAPRLYSVPVAQRWRERPRDEDALNRAEGHHHHHH | not soluble
9 | MIKPVGSDELKPLFVYDPEEHHKLSHEAESLPSVVISSQAAGNAVMMGAGYFSPLQGFMNVADAMGAAEKMTLSDGSFFPVPVLCLLENTDAIGDAKRIALRDPNVEGNPVLAVMDIEAIEEVSDEQMAVMTDKVYRTTDMDHIGVKTFNSQGRVAVSGPIQVLNFSYFQADFPDTFRTAVEIRNEIKEHGWSKVVAFQTRNPMHRAHEELCRMAMESLDADGVVVHMLLGKLKKGDIPAPVRDAAIRTMAEVYFPPNTVMVTGYGFDMLYAGPREAVLHAYFRQNMGATHFIIGRDHAGVGDYYGAFDAQTIFDDEVPEGAMEIEIFRADHTAYSKKLNKIVMMRDVPDHTKEDFVLLSGTKVREMLGQGIAPPPEFSRPEVAKILMDYYQSINS | soluble
10 | GAMGMTTYLEFIQQNEERDGVRFSWNVWPSSRLEATRMVVPVAALFTPLKERPDLPPIQYEPVLCSRTTCRAVLNPLCQVDYRAKLWACNFCYQRNQFPPSYAGISELNQPAELLPQFSSIEYVVLRGPQMPLIFLYVVDTCMEDEDLQALKESMQMSLSLLPPTALVGLITFGRMVQVHELGCEGISKSYVFRGTKDLSAKQLQEMLGLSKVPVTQATRGPQVQQPPPSNRFLQPVQKIDMNLTDLLGELQRDPWPVPQGKRPLRSSGVALSIAVGLLECTFPNTGARIMMFIGGPATQGPGMVVGDELKTPIRSWHDIDKDNAKYVKKGTKHFEALANRAATTGHVIDIYACALDQTGLLEMKCCPNLTGGYMVMGDSFNTSLFKQTFQRVFTKDMHGQFKMGFGGTLEIKTSREIKISGAIGPCVSLNSKGPCVSENEIGTGGTCQWKICGLSPTTTLAIYFEVVNQHNAPIPQGGRGAIQFVTQYQHSSGQRRIRVTTIARNWADAQTQIQNIAASFDQEAAAILMARLAIYRAETEEGPDVLRWLDRQLIRLCQKFGEYHKDDPSSFRFSETFSLYPQFMFHLRRSSFLQVFNNSPDESSYYRHHFMRQDLTQSLIMIQPILYAYSFSGPPEPVLLDSSSILADRILLMDTFFQILIYHGETIAQWRKSGYQDMPEYENFRHLLQAPVDDAQEILHSRFPMPRYIDTEHGGSQARFLLSKVNPSQTHNNMYAWGQESGAPILTDDVSLQVFMDHLKKLAVSSAA | soluble
11 | MGSDKIHHHHHHMEWILFDKDGTLIEFDSSWEKIGVRLVDQLLETFPVHDKEAAHRQLGIIDKKIKPDSVMGSGSLGEIIESFNGVTGKETSDWTRDTSQELIDSRVPENNWIDGVQETIQALRNEGYHIGIVTSDTKKGVDQFLEETQTRNLFDLVISTETHAEEKPHPKVLDPLFNAFDVEPGQVAIVGDTANDMKTAINANLGLGIGVLTGVAKKEELYDADVIINSAKDVKQVIEQYGK | not soluble
12 | MKIPDLTNYEHLIGGLCGGVTSTVVCHPFDLLKIRFSANEGSSLRPQYSSYADAVRKIVRVEGVRGLYQGWTPSLIGASLSWGLYFQWYNSLRTKIYENFSTGSKLANNLISGCISGSAIMCITNPIWLTKTRLCLQYENQQSKKYAGMMDCLKKTVKQEGFFGLYRGFVTGVIGTTHGAVQIAAYSWIIDKRCQSQGLPKDSFLSQTDYVIASSTSKVLATTITFPYQVLRTRMQDHNTDSRGVWKTTLKTIHNEGIGGLWKGCLIANVRQLPAAVVTFLTYENVKRLVGMTKQI | not soluble
13 | MPMVRVATNLPDKDVPANFEERLTDLLAESMNKPRNRIAIEVLAGQRITHGASRNPVAVIKVESIGALSADDNIRHTQKITQFCQDTLKLPKDKVIITYFDLQPIHVGFNGTTVAAATM | soluble
14 | MDEFVKGLMKNGYLITPSAYYLLVGHFNEGKFSLIELIKFAKSRETFIIDDEIANEFLKSIGAEVELPQEIKEGYISTGEGSQKVPDHEELEKITNESSVESSISTGETPKTEELQPTLDILEEEIGDIEGGESSISTGDEVPEVENNNGGTVVVFDKYGYPFTYVPEEIEEELEEYPKYEDVTIEINPNLEVVPIEKDYEIKFDVRRVKLKPPKVKSGSGKEGEIIVEAYASLFRSRLRKLRRILRENPEVSNVIDIKKLKYVKGDEEVTIIGLVNSKKETSKGLIFEVEDQTDRVKVFLPKDSEDYREALKVLPDAVVAFKGVYSKRGIFFANRFYLPDVPLYRKQKPPLEEKVYAVLTSDIHVGSKEFCEKAFIKFLEWLNGYVESKEEEEIVSRIRYLIIAGDVVDGIGIYPGQYSDLIIPDIFDQYEALANLLSNVPKHITIFIGPGNHDAARPAIPQPEFYEEYAKPLYKLKNTVIISNPAVIRLHGRDFLIAHGRGIEDVVSFVPGLTHHKPGLPMVELLKMRHLAPTFGGKVPIAPDPEDLLVIEEVPDLVQMGHVHVYDTAVYRGVQLVNSATWQAQTEFQKMVNIVPTPGLVPIVDVESARVIKVLDFSRWC | soluble
15 | MGSDKIHHHHHHMSAIPIIDIPFDKRHTCWFCGEPCNQHFEYHSQTHTPHPSLAVPACSECAKLAKQHPLTSIWDCRMAVKDALMRIYAKHLAIGINWTEAELAESDFSCNIFEGFKKSAWMMYQIARDRINAPGWPLRLEEIEIDDQGYSAGFEFDGVTYTSVHAAIHYYSTQFTLDPTFFADLVRLVGRARFNYALRLARIHIASAKEMKRQVLTDLEAELI | not soluble
16 | MQDRCPHQDHRSIPTIMPDLEPDTVSALEAPEFAPAQFVRWFREVAPYVHAFRGKTFVVAFGGELVQAGALNVLVQDLSLLSALGIHLVLVHGSRPQVNEQLRLKGYTQQFGRGLAPTDPAALECAKEAAGEIRLDIEAAFSQGLPNTPMSHSHIRVLSGNFVTARPTGVVDGIDYKHTGQVRKIDVDALKFAIEQGSVVLLSPLGFSPTGDAFNLAMEDLATSVAVALRAEKLIFLSGEPGVLDGNGAVDTELARVDADALLARGELDEDTTYFLQHASLAVKRGVARAHLVPYALDGSVLLEIFTHDGVGTMVVEDTLDDLRAATLDDVGAILSLIEPLETDGTLVPRPRSAIERDVERFTVLEHDGVIYGCAALYPFPEDQMAEMACLIVHPEWQGSGEGEILLRHMESRARASGARRLFVLTTRTSHWFMKRGFVRGGVADLPRDKQNNYNRSRNSLVFIKKL | not soluble
17 | MIIMLSEYLEEFKEYLERFKNIDINFSDVLKMSKKFIIWRLKQIFGDSSTIFTNISSEITIFDKIFQMIDYDIDGEVEKRLPKDESRFMIGVRREKEIEIKKEIITNLLDFLLIILLSHTPYFNAFVRKYAEIKKIKVIKKLPNKISVWEFIKIASRSRINDLHLERLDLENGFVDITKIKEIFAKEIIRVELMKLGENIKKRKLPDDSVVKELLNEISDYLKDKVKYEQISGIKALNYKGNIPLEWHPPCIRGILNDILSGGSPSHYARRSFVVYWFCAKFNPNLRPLDKNGNLVNVSATDIASEEEIERFIDELIEMLFKNVEDFDEKKTRYYIMHNIGYKVGHGRLTHCEYCKNWQDDGGKGLSYYCKPDELCKKKFIIHPLDYLCYNINKHLKKERFKKIKKEDKNGDNKLEHHHHHH | soluble
